± gives the standard deviation.

This series can be described thus: protein stability index of a GFP-peptide fusion (GPS, HEK-293T) (PSI 1-6); higher = more stable. To be noted: c terminus: a fixed tail appended.
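Also: 24-mer peptide tiles fused after GFP, lentivirally expressed, FACS-sorted into six equal bins by GFP/DsRed ratio, decoded by Illumina sequencing, PSI is the read-weighted mean bin number.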

Regarding MQSARGPTPSSPLPSVPVSVPASD [PLEKHN1], the protein stability index by setting is: (treatment: DMSO) 4.78 ± 0.28; (treatment: MLN4924 1 uM, 8 h) 4.79 ± 0.11.

WIGKQLPTPVGAVQQDPALSSNRE [CSNK1G3]: the protein stability index runs as follows: (treatment: DMSO) 4.11 ± 0.19; (treatment: MLN4924 1 uM, 8 h) 4.48 ± 0.26.

Sequence FDPDAKGLSDPGKIKRLRSQVQVS [HNF4A] had a protein stability index (treatment: DMSO) of 3.84 ± 0.18 and a protein stability index (treatment: MLN4924 1 uM, 8 h) of 4.06 ± 0.28.

QEYFERHRWPPVWYLKEEDHYQRV [RHOBTB1]: the protein stability index is, setting by setting: (treatment: DMSO) 3.08 ± 0.24; (treatment: MLN4924 1 uM, 8 h) 3.08 ± 0.1.

Turning to HPGEHEVGEPEFHYIAGAHGNEVL [CPXM2], the protein stability index runs as follows: (treatment: DMSO) 5.1 ± 0.29; (treatment: MLN4924 1 uM, 8 h) 4.98 ± 0.31.

For IKLIDFGIAHKIEAGNEFKNIFGT [DAPK3], the protein stability index is, setting by setting: (treatment: DMSO) 2.47 ± 0.31; (treatment: MLN4924 1 uM, 8 h) 2.32 ± 0.21.

On to DQLAFIEELFSLMVVNRLTEELGC [EID1], for which the protein stability index is 3.01 ± 1.2 (treatment: DMSO) and 3.21 ± 0.51 (treatment: MLN4924 1 uM, 8 h).

For the sequence PILKVQYHPRDQNKVLVCPMKSAP [RBBP5], the protein stability index by setting is: (treatment: DMSO) 2.99 ± 0.17; (treatment: MLN4924 1 uM, 8 h) 3.13 ± 0.14.

For FLFNSELLSDVRFVLGKGRGAAAA [BTBD1], the protein stability index was 2.12 ± 0.33 (treatment: DMSO) and 2.33 ± 0.34 (treatment: MLN4924 1 uM, 8 h).

Turning to MQKRSKAIHSSDEDEDEDDEEDFE [WASL], the protein stability index (treatment: DMSO) came to 4.58 ± 0.23 and the protein stability index (treatment: MLN4924 1 uM, 8 h) turned out to be 4.69 ± 0.21.

As to GKQAPRKKAQGKTQQNRKLTDFYP [KMT5A], the protein stability index was found to be 3.64 ± 0.42 (treatment: DMSO) and 4.21 ± 0.41 (treatment: MLN4924 1 uM, 8 h).

With RLLSDATVEKDESHAGKVVLRSWY [FAM50A], the protein stability index by setting is: (treatment: DMSO) 3.02 ± 0.11; (treatment: MLN4924 1 uM, 8 h) 3.26 ± 0.12.

In the case of HPLPTVIIVNLLWFIHLVFVVLAF [TMEM192], the protein stability index was determined as 3.37 ± 0.063 (treatment: DMSO) and 3.02 ± 0.7 (treatment: MLN4924 1 uM, 8 h).

As for KDVRAPSRPAVGPPQPGCPAFIIV [ZSWIM9], the protein stability index worked out at 2.23 ± 0.75 (treatment: DMSO) and 2.43 ± 0.6 (treatment: MLN4924 1 uM, 8 h).

Consider MPSWASARDRQPSDFKTDKEGGQA [ELOA2], for which the protein stability index is, setting by setting: (treatment: DMSO) 5.14 ± 0.43; (treatment: MLN4924 1 uM, 8 h) 5.2 ± 0.22.

On to QLTEKLARVNENLARKIASRNEFD [SSNA1], for which the protein stability index runs as follows: (treatment: DMSO) 2.85 ± 0.18; (treatment: MLN4924 1 uM, 8 h) 3.24 ± 0.39.

Turning to LPNHKPKGTFKDYVRDRADLNKDK [ETS1], the protein stability index is, setting by setting: (treatment: DMSO) 4.552 ± 0.017; (treatment: MLN4924 1 uM, 8 h) 4.74 ± 0.32.

MRKTSNSCIMENGHQPGTGPGDGP [SMTNL2]: the protein stability index turned out to be 4.42 ± 0.064 (treatment: DMSO) and 4.55 ± 0.11 (treatment: MLN4924 1 uM, 8 h).

As to KRRPKAQPTTLVLPPQYVDDVISR [MED27], the protein stability index (treatment: DMSO) turned out to be 4.03 ± 0.12 and the protein stability index (treatment: MLN4924 1 uM, 8 h) is 4.06 ± 0.17.

EVVMNSQQTPVGTPKDKRVSNTPL [PALM]: the protein stability index turned out to be 3.44 ± 0.2 (treatment: DMSO) and 3.61 ± 0.2 (treatment: MLN4924 1 uM, 8 h).

Regarding SRVILEIDNARLAADDFRLKYENE [KRT15], the protein stability index by setting is: (treatment: DMSO) 3.62 ± 0.4; (treatment: MLN4924 1 uM, 8 h) 3.7 ± 0.15.

For the sequence AQQFALMAPLLFNGCRSGEIFAID [DCAF4], the protein stability index reads like this: (treatment: DMSO) 2.6 ± 0.72; (treatment: MLN4924 1 uM, 8 h) 2.64 ± 0.34.

Sequence DEEEEEEEEEEGRFYYSEDDHGDE [KCNA4] showed a protein stability index (treatment: DMSO) of 5.56 ± 0.14 and a protein stability index (treatment: MLN4924 1 uM, 8 h) of 5.55 ± 0.28.

VKELGTVMRMLGQTPTKEELDAII [TNNC2] had a protein stability index (treatment: DMSO) of 3.02 ± 0.29 and a protein stability index (treatment: MLN4924 1 uM, 8 h) of 3.04 ± 0.94.

Regarding LPSNLVQYYDDEKKTWKILTIMPY [KLHL14], the protein stability index reads like this: (treatment: DMSO) 2.42 ± 0.33; (treatment: MLN4924 1 uM, 8 h) 2.3 ± 0.12.

SQNSSLVQHERIHTGDKPYKCAEC [ZNF8] had a protein stability index (treatment: DMSO) of 4.58 ± 0.29 and a protein stability index (treatment: MLN4924 1 uM, 8 h) of 4.82 ± 0.28.

Take DQRNPAKESLETPSNGRIDIKQLI [SOAT1]: the protein stability index reads like this: (treatment: DMSO) 4.13 ± 0.26; (treatment: MLN4924 1 uM, 8 h) 4.24 ± 0.23.

On to HLYPADFRFDKPKKSRSPASAEAP [ZNF511], for which the protein stability index was 3.38 ± 0.52 (treatment: DMSO) and 3.83 ± 0.45 (treatment: MLN4924 1 uM, 8 h).

PCHPTVKNWRNFASKWGMSYDELC [EDARADD] registered a protein stability index (treatment: DMSO) of 2.64 ± 0.28 and a protein stability index (treatment: MLN4924 1 uM, 8 h) of 2.54 ± 0.38.

In the case of RRRQRSEKKKAHYRQSSFPHCSDL [KCNA4], the protein stability index was 3.66 ± 0.16 (treatment: DMSO) and 3.98 ± 0.19 (treatment: MLN4924 1 uM, 8 h).

For VEQMTKEERQAAQNECQVLKLLNH [NEK8], the protein stability index reads like this: (treatment: DMSO) 4.59 ± 0.18; (treatment: MLN4924 1 uM, 8 h) 4.63 ± 0.15.

WLHCVCVVGFDLELGQAVEVIYPQ [DENND6A]: the protein stability index worked out at 2.66 ± 0.95 (treatment: DMSO) and 2.46 ± 0.085 (treatment: MLN4924 1 uM, 8 h).

With WEEEKALWVEERALLEGEKALWED [CCDC70], the protein stability index by setting is: (treatment: DMSO) 5.07 ± 0.28; (treatment: MLN4924 1 uM, 8 h) 5.22 ± 0.13.

SRRVLLTNVVTGHRQSFGTNSDVL [DCAF4] yielded a protein stability index (treatment: DMSO) of 2.87 ± 0.28 and a protein stability index (treatment: MLN4924 1 uM, 8 h) of 3.04 ± 0.26.

As for MWLTPLHRAVASRSEEAVQVLIKH [ANKRD44], the protein stability index was 2.29 ± 0.12 (treatment: DMSO) and 2.45 ± 0.18 (treatment: MLN4924 1 uM, 8 h).

For FQTRQEMTSMSAELKMRAIQAEER [LRRC45], the protein stability index by setting is: (treatment: DMSO) 4.12 ± 0.29; (treatment: MLN4924 1 uM, 8 h) 4.48 ± 0.22.

Values taken from the supplement of paper PMC10567573.
